Test [1] has as its target Wild type KIT expressed on cells (UniProt P10721 26-976, limits assumed). The experiment in a line: cell-based or functional assay.
Test [2] has as its target T1, Soluble KITD4-5 fragment (amino acids 308-514) (human, UniProt P10721 308-514, glycosylated Asn320 (partial deglycosylation with endoglycosidase F1)).
T1 construct: range 308-514; Expressed in Sf9 insect cells with an N-terminal His-tag and a TEV site; also called KITm-5; KITm-s
As to the kind of experiment: SPR (Biacore T100, 25 C), KITD4-5 amine-coupled to a CM5 chip, Fab as analyte 0.12-10 nM, 1:1 Langmuir fit. (In SPR one partner is held on a chip, and binding of the other changes the refractive index at the surface.)

The target of test [3] is T1, Soluble KITD4-5 fragment (amino acids …). As to the kind of experiment: SPR (Biacore T100, 25 C), KITD4-5 amine-coupled to a CM5 chip, Fab as analyte, long dissociation time, 1:1 Langmuir fit.

The values that follow come from WO2015050959A1 (dated 2015).

B1: IgG 79D (antibody, V domains shown)
VH: EVQLVESGGGLVQPGGSLRLSCAASGFNISVYMMHWVRQAPGKGLEWVASIYPYSGYTYYADSVKGRFTISADTSKNTAYLQMNSLRAEDTAVYYCARYVYHALDYWGQGTLVTVSS
VL: DIQMTQSPSSLSASVGDRVTITCRASQRGLRNVAVAWYQQKPGKAPKLLIYSASSLYSGVPSRFSGSRSGTDFTLTISSLQPEDFATYYCQQWAVHSLITFGQGTKVEIKR
Regarding B1, the “concentration at which KIT autophosphorylation was inhibited (NIH-3T3 cells expressing wt KIT, SCF stimulation)” value in test [1] is 1 nM.

B2: Fab19 (Fab)
VH: EVQLVESGGGLVQPGGSLRLSCAASGFNISSYSMHWVRQAPGKGLEWVASIYPYSGYTYYADSVKGRFTISADTSKNTAYLQMNSLRAEDTAVYYCARYVYHALDYWGQGTLVTVSS
light: DIQMTQSPSSLSASVGDRVTITCRASQSVSSAVAWYQQKPGKAPKLLIYSASSLYSGVPSRFSGSRSGTDFTLTISSLQPEDFATYYCQQWAVHSLITFGQGTKVEIKRTVAAPSVFIFPPSDSQLKSGTASVVCLLNNFYPREAKVQWKVDNALQSGNSQESVTEQDSKDSTYSLSSTLTLSKADYEKHKVYACEVTHQGLSSPVTKSFNRGECGGSDYKDDDDK
notes: Human synthetic Fab from phage library F, made in E. coli; Light chain carries a C-terminal Flag-tag; also called parental synthetic Fab; anti-D4 Fab
In general, Kd refers to the free concentration of one partner at which half of the binding sites on the other are occupied at equilibrium, for simple one-to-one binding. Consider B2, for which, in test [1], the “concentration at which KIT autophosphorylation was inhibited (NIH-3T3 cells expressing wt KIT, SCF stimulation)” value was found to be 50 nM. The same molecule displayed a Kd in test [2] of 0.63 nM.

B3: Fab79D (Fab)
heavy: EVQLVESGGGLVQPGGSLRLSCAASGFNISVYMMHWVRQAPGKGLEWVASIYPYSGYTYYADSVKGRFTISADTSKNTAYLQMNSLRAEDTAVYYCARYVYHALDYWGQGTLVTVSSASTKGPSVFPLAPSSKSTSGGTAALGCLVKDYFPEPVTVSWNSGALTSGVHTFPAVLQSSGLYSLSSVVTVPSSSLGTQTYICNVNHKPSNTKVDKKVEPKSC
light: DIQMTQSPSSLSASVGDRVTITCRASQRGLRNVAVAWYQQKPGKAPKLLIYSASSLYSGVPSRFSGSRSGTDFTLTISSLQPEDFATYYCQQWAVHSLITFGQGTKVEIKRTVAAPSVFIFPPSDSQLKSGTASVVCLLNNFYPREAKVQWKVDNALQSGNSQESVTEQDSKDSTYSLSSTLTLSKADYEKHKVYACEVTHQGLSSPVTKSFNRGECGGSDYKDDDDK
notes: Made in E. coli; also called last generation Fab; KIT79D (Fab)
As for B3, in test [3], the Kd turned out to be 6.4 pM.
